Data as given in PMC4994250, “A new mode of SAM domain mediated oligomerization observed in the CASKIN2 neuronal scaffolding protein” (Cell Communication and Signaling : CCS, 2016).

Columns and labels:
[1] = biological target: the molecule itself; assay: crystal structure; selenomethionine labeled SAM1-SAM2, 0.6 mM in T300 buffer, hanging drop at 4 °C, 0.1 M Tris pH 7.5, 2.4 M sodium formate, 5 mM DTT; SAD, 2.75 Å; one tandem in the asymmetric unit
[2] = biological target: the molecule itself; assay: AUC; sedimentation velocity, 150 mM NaCl, 20 mM sodium phosphate pH 7.8, 20 °C, 50,000 rpm; 10 and 34 μM loading, Kd fitted from the 34 μM experiment; monomer-dimer equilibrium (dimer to monomers)
[3] = biological target: the molecule itself; assay: AUC; sedimentation velocity, 300 mM NaCl, 20 mM sodium phosphate pH 7.8, 20 °C, 50,000 rpm; 10 and 34 μM loading, Kd fitted from the 34 μM experiment; monomer-dimer equilibrium (dimer to monomers)

B1: human CASKIN2 SAM1-SAM2 tandem (483-634), wild type (domain or fragment)
chain: not shown
modifications: selenomethionine in the protein used for crystals; uniform 15N label in the NMR samples
notes: CASKIN2, human, tandem SAM domains SAM1-SAM2, residues 483-634 of Uniprot Q8WXE0; Cloned into BamHI/XhoI of pET28; the vector probably adds an N-terminal His tag with linker residues (surmise); also called CASKIN2 SAM tandem; wild type SAM tandem; source: E. coli BL21:DE3, purified (Nickel-NTA, gel filtration)
stoichiometry N [1]: 2 | Kd [2]: 52.9 µM | Kd [3]: 27.6 µM
